Experimental data published in the supplement of paper PMC5998384.

Columns and labels:
[1] = system: HeLa Kyoto; experiment: solubility in G1/S (NP-40 vs SDS abundance) (log2 ratio); higher = more soluble; details: cell cycle stage: G1/S
[2] = system: HeLa Kyoto; experiment: solubility change mitosis vs G1/S (difference of NP-40 vs SDS log2 ratios) (log2 ratio difference); higher = more soluble in mitosis
[3] = system: HeLa Kyoto; experiment: thermal stability score vs G1/S (z-score of summed log2 fold changes over temperatures); higher = more thermally stable than in G1/S
[4] = cell cycle stage: early G1 (4.5 h after nocodazole release)
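Wherever solubility change mitosis vs G1/S (difference of NP-40 vs SDS log2 ratios) is given: synchronized HeLa Kyoto cells (double thymidine block for G1/S, nocodazole release for mitosis), protein amounts in NP-40 versus SDS lysates quantified by mass spectrometry, three biological replicates.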
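Wherever solubility in G1/S (NP-40 vs SDS abundance) is given: HeLa Kyoto cells arrested at G1/S by double thymidine block, proteins quantified by TMT10plex mass spectrometry in mild NP-40 versus SDS extracts, three biological replicates.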
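Wherever thermal stability score vs G1/S (z-score of summed log2 fold changes over temperatures) is given: synchronized HeLa Kyoto cells, proteins quantified by TMT10plex mass spectrometry, three biological replicates, mitosis taken 0.5 h after nocodazole release, G1/S directly after double thymidine block.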

For “MQTSEREGSGPELSPSVMPEAPLESPPFPTKSPAFDLFNLVLSYKRLEIYLEPLKDAGDGVRYLLRWQMPLCSLLTCLGLNVLFLTLNEGAWYSVGALMISVPALLGYLQEVCRARLPDSELMRRKYHSVRQEDLQRGRLSRPEAVAEVKSFLIQLEAFLSRLCCTCEAAYRVLHWENPVVSSQFYGALLGTVCMLYLLPLCWVLTLLNSTLFLGNVEFFRVVSEYRASLQQRMNPKQEEHAFESPPPPDVGGKDGLMDSTPALTPTEDLTPGSVEEAEEAEPDEEFKDAIEETHLVVLEDDEGAPCPAEDELALQDNGFLSKNEVLRSKVSRLTERLRKRYPTNNFGNCTGCSATFSVLKKRRSCSNCGNSFCSRCCSFKVPKSSMGATAPEAQRETVFVCASCNQTLSK [ZFYVE27]”, the “solubility in G1/S (log2)” value [1] was -0.196, the “solubility change mitosis (log2)” value [2] was -0.198 and the thermal stability score [3, 4] was 0.202. It also gave a thermal stability score ([3]; cell cycle stage: mitosis) of -1.24.
For “MRGKTFRFEMQRDLVSFPLSPAVRVKLVSAGFQTAEELLEVKPSELSKEVGISKAEALETLQIIRRECLTNKPRYAGTSESHKKCTALELLEQEHTQGFIITFCSALDDILGGGVPLMKTTEICGAPGVGKTQLCMQLAVDVQIPECFGGVAGEAVFIDTEGSFMVDRVVDLATACIQHLQLIAEKHKGEEHRKALEDFTLDNILSHIYYFRCRDYTELLAQVYLLPDFLSEHSKVRLVIVDGIAFPFRHDLDDLSLRTRLLNGLAQQMISLANNHRLAVILTNQMTTKIDRNQALLVPALGESWGHAATIRLIFHWDRKQRLATLYKSPSQKECTVLFQIKPQGFRDTVVTSACSLQTEGSLSTRKRSRDPEEEL [RAD51C]”, the “solubility in G1/S (log2)” value [1] was 0.00866, the “solubility change mitosis (log2)” value [2] was 0.0331 and the thermal stability score [3, 4] was -0.288. It also gave a thermal stability score ([3]; cell cycle stage: mitosis) of -0.541.
“MSENLDKSNVNEAGKSKSNDSEEGLEDAVEGADEALQKAIKSDSSSPQRVQRPHSSPPRFVTVEELLETARGVTNMALAHEIVVNGDFQIKPVELPENSLKKRVKEIVHKAFWDCLSVQLSEDPPAYDHAIKLVGEIKETLLSFLLPGHTRLRNQITEVLDLDLIKQEAENGALDISKLAEFIIGMMGTLCAPARDEEVKKLKDIKEIVPLFREIFSVLDLMKVDMANFAISSIRPHLMQQSVEYERKKFQEILERQPNSLDFVTQWLEEASEDLMTQKYKHALPVGGMAAGSGDMPRLSPVAVQNYAYLKLLKWDHLQRPFPETVLMDQSRFHELQLQLEQLTILGAVLLVTFSMAAPGISSQADFAEKLKMIVKILLTDMHLPSFHLKDVLTTIGEKVCLEVSSCLSLCGSSPFTTDKETVLKGQIQAVASPDDPIRRIMESRILTFLETYLASGHQKPLPTVPGGLSPVQRELEEVAIKFARLVNYNKMVFCPYYDAILSKILVRS [TCP11L1]” was tested, and the “solubility in G1/S (log2)” value [1] was 0.346, the “solubility change mitosis (log2)” value [2] was 0.1 and the thermal stability score [3, 4] was 1.37. For the same sequence, the thermal stability score ([3]; cell cycle stage: mitosis) was 1.4.
